The target in assay [1] is T1, ARR12 (Arabidopsis, UniProt P62598 1-596).
T1 construct: YFP^N or YFP^C fusion of the full-length cDNA in BiFC; also called AtARR12; type-B response regulator AtARR12
T1 sequence (looked up): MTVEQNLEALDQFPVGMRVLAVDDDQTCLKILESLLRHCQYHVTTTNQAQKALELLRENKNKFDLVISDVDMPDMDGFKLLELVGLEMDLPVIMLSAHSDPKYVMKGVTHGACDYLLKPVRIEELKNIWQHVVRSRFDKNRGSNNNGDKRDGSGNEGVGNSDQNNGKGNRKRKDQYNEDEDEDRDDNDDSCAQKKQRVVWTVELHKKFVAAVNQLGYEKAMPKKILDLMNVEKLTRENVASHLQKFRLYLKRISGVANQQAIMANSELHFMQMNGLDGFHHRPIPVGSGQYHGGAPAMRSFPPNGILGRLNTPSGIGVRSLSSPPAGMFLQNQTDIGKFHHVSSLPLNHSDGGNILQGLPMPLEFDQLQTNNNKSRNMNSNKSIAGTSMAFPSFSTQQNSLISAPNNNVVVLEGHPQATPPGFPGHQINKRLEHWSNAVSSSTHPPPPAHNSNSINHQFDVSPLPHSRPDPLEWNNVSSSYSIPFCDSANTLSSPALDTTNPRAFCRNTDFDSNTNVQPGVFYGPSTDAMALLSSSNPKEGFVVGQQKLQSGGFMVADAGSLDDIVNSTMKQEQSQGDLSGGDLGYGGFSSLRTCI
Briefly: yeast two-hybrid.

Assay [2] deals with T1, ARR12. Briefly: yeast two-hybrid, positive control.
The target in assay [3] is T2, KISS ME DEADLY 3 (KMD3) (Arabidopsis, UniProt O80582 1-409).
T2 construct: Full-length protein; LexA fusion in yeast two-hybrid, YFP^N or YFP^C fusion in BiFC; also called At2g44130
T2 sequence (looked up): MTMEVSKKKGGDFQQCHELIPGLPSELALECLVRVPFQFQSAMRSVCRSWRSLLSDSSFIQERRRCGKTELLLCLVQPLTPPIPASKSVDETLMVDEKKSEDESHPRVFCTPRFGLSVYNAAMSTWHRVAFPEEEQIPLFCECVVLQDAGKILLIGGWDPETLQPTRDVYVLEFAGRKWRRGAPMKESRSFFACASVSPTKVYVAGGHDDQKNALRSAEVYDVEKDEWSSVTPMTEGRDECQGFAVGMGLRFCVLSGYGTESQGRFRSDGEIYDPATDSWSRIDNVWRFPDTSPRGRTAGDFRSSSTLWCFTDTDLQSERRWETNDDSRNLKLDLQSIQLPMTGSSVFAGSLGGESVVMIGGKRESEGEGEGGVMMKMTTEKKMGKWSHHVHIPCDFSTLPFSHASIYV
The experiment in a line: yeast two-hybrid (LexA-KMD bait, X-gal). From the text: (§1) The DUPLEX-A™ system (OriGene Technologies) was used for yeast two-hybrid analysis of interactions. KMD cDNAs were cloned into the pGilda bait vector, which produces an in-frame fusion with the LexA DNA-binding domain. Type-B ARR coding sequences were cloned into the pJG4-5 prey vector, which produces a B42 activation domain. The yeast strain EGY48 (MATa, trp1, his3, ura3, leu2::6 LexAop-LEU2) that contains the lacZ reporter plasmid pSH18-34 was transformed with the appropriate “bait” and “prey” plasmids. Interactions were tested on 5-bromo-4-chloro-3-indolyl-p-D-galactopyranoside (X-gal) medium (Ryu, et al. (2005) Cell 120(3): 395-406).
(§2) The KMD proteins also interacted with ARR20 (type-B ARR subfamily-3), but not with ARR19 (subfamily-2) and ARR21 (subfamily-3). […] All four KMD proteins interacted with both ARR1 and ARR12 in a BiFC assay. Strong fluorescence was detected in the nuclei of cells, consistent with the subcellular localization of the type-B ARRs (Hwang & Sheen J (2001) Nature 413(6854):383-389; Mason, et al. (2004) Plant Physiol. 135(2):927-937).

Assay [4] addresses T3, KISS ME DEADLY 4 (KMD4) (Arabidopsis, UniProt Q9M1Y1 1-418).
T3 construct: Full-length protein; LexA fusion in yeast two-hybrid, YFP^N or YFP^C fusion in BiFC; also called At3g59940
T3 sequence (looked up): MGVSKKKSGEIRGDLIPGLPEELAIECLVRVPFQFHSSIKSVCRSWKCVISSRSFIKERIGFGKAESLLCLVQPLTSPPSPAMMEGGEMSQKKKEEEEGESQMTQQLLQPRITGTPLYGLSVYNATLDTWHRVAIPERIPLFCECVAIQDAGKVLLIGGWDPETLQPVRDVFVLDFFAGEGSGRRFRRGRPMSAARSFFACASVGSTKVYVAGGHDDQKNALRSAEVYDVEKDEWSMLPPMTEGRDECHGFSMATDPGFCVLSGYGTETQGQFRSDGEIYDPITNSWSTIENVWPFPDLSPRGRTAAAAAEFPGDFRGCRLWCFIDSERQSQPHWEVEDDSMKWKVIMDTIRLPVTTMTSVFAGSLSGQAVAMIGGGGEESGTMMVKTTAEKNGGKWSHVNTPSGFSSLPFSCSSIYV
The experiment in a line: yeast two-hybrid (LexA-KMD bait, X-gal).
Source text: as §1, §2

Assay [5] addresses T4, KISS ME DEADLY 1 (KMD1) (Arabidopsis, UniProt Q9M8L2 1-354).
T4 construct: Full-length protein; also called At1g80440
T4 sequence (looked up): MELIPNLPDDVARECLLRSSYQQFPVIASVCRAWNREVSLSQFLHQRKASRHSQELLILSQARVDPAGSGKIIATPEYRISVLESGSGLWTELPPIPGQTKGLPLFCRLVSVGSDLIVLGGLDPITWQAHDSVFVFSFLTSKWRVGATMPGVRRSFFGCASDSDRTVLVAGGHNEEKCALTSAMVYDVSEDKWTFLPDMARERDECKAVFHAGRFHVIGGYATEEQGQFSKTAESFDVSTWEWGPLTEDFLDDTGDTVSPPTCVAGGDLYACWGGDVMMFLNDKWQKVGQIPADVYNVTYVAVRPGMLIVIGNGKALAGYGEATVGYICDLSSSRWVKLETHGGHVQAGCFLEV
The experiment in a line: yeast two-hybrid (LexA-KMD bait, X-gal).
Source text: as §1, §2

The target in assay [6] is T5, KISS ME DEADLY 2 (KMD2) (Arabidopsis, UniProt Q9LMR5 1-359).
T5 construct: Full-length protein; LexA fusion in yeast two-hybrid, YFP^N or YFP^C fusion in BiFC; also called At1g15670
T5 sequence (looked up): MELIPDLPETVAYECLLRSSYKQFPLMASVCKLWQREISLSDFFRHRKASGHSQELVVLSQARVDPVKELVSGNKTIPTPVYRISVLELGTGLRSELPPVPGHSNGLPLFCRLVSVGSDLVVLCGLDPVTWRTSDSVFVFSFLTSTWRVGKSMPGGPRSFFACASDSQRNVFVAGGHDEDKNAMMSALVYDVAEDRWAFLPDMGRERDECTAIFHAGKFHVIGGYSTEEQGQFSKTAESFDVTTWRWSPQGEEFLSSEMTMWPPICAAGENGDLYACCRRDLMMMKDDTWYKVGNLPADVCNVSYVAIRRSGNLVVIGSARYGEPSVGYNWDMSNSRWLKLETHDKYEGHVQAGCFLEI
Briefly: yeast two-hybrid (LexA-KMD bait, X-gal).
Source text: as §1, §2

Assay [7] addresses T4, KISS ME DEADLY 1 (KMD1). Briefly: BiFC with ARR fragments; the weaker of the two interactions.
The target in assay [8] is T2, KISS ME DEADLY 3 (KMD3). The experiment in a line: BiFC (YFP^N/YFP^C fusions) in Arabidopsis protoplasts. The protocol: (§3) Arabidopsis protoplasts were transfected as described (Kovtun, et al. (2000) Proc. Natl. Acad. Sci. USA 97(6):2940-2945) and incubated overnight at 22° C. under dim light (5 […]) and examined with an Axioplan2 fluorescent microscope (Carl Zeiss).
(§4) KMD proteins contain a conserved amino-terminal F-box motif. To determine if KMDs function as canonical F-box proteins, their interactions with known components of the Arabidopsis SCF complex were examined.

Assay [9] concerns the target T3, KISS ME DEADLY 4 (KMD4). Described as above. The method, then:
as §3, §4

Assay [10] concerns the target T4, KISS ME DEADLY 1 (KMD1). Described as above. The method, then: as §3, §4
The target of assay [11] is T5, KISS ME DEADLY 2 (KMD2). The description is as above. The method, then: as §3, §4

We go through 6 molecules from patent US20160289698A1 (TRUSTEES OF DARTMOUTH COLLEGE, published 2016).

B1: OsKMD2 (other)
chain: MGYNELIPGLPEEVARECLIRVGFDQLPAVRRISRQWKAEVESPAYNRLRKAEGLARPALALVQARRELAEAGPAADKQSSAGGVPGNSYRMVLLDPAEGRWTPLPEVGGASGSLPLFCQVAAVDGGVEGRKRLVVVGGWDPETWAPTDSVLVYDFLTGAWRRGAAMPGPRRSFFACAAVGGKVFVAGGHDEEKNALRSALAYDPDADAWAALPDMAEERDEPRGLCVDGKFLVVGGYPTPAQGRFVGSAEWFDPATSTWSAVQEGFVDDGACPRTCSAAPEAGDRMYMLRDGHLVARHGAISSAPAAWRPVAPVPEDARTAAAVSVIPDGRVVVIGSDCHGGDQTVYTLREEAGKPASWARAPAPPEFSGHVQAACLLEI
notes: Tested in yeast two-hybrid; The fusion partner (LexA bait as for the Arabidopsis KMDs) is not restated for OsKMD2; also called rice KMD2; Os06g39370
For the molecule B1, in [1], the binding result is reported as “binds”.

B2: phosphotransfer protein AtAHP2 (other, Arabidopsis, UniProt Q9ZNV8 1-156, looked up)
chain: MDALIAQLQRQFRDYTISLYQQGFLDDQFTELKKLQDDGSPDFVSEVLSLFFEDCVKLISNMARALDTTGTVDFSQVGASVHQLKGSSSSVGAKRVKTLCVSFKECCEAKNYEGCVRCLQQVDIEYKALKTKLQDMFNLEKQIIQAGGIVPQVDIN
notes: Positive control in the yeast two-hybrid test with AtARR12; construct not described
For B2, the binding result in assay [2] was “binds”.

B3: ARR7 (type-A ARR) (other, Arabidopsis, UniProt Q9ZWS7 1-206, looked up)
chain: MAVGEVMRMEIPAGGDLTVTTPELHVLAVDDSIVDRKVIERLLRISSCKVTTVESGTRALQYLGLDGGKGASNLKDLKVNLIVTDYSMPGLSGYDLLKKIKESSAFREVPVVIMSSENILPRIQECLKEGAEEFLLKPVKLADVKRIKQLIMRNEAEECKILSHSNKRKLQEDSDTSSSSHDDTSIKDSSCSKRMKSESENLFSLL
notes: Prey in yeast two-hybrid
Take B3: the binding result in assay [3], in assay [4], in assay [5] and in assay [6] was “no binding” each time.

B4: ARR12 (1-134) (other, Arabidopsis, UniProt P62598 1-134, looked up)
chain: MTVEQNLEALDQFPVGMRVLAVDDDQTCLKILESLLRHCQYHVTTTNQAQKALELLRENKNKFDLVISDVDMPDMDGFKLLELVGLEMDLPVIMLSAHSDPKYVMKGVTHGACDYLLKPVRIEELKNIWQHVVR
notes: range 1-134; Fused to a YFP fragment for BiFC; also called receiver domain of ARR12
For the molecule B4, in assay [7], the binding result is listed as “binds”.

B5: ASK1, an Arabidopsis Skp1 protein of the SCF complex (other, UniProt Q39255 1-160, looked up)
chain: MSAKKIVLKSSDGESFEVEEAVALESQTIAHMVEDDCVDNGVPLPNVTSKILAKVIEYCKRHVEAAASKAEAVEGAATSDDDLKAWDADFMKIDQATLFELILAANYLNIKNLLDLTCQTVADMIKGKTPEEIRTTFNIKNDFTPEEEEEVRRENQWAFE
notes: Full-length cDNA fused to YFP^N or YFP^C for BiFC
For B5, the binding result in [8], in assay [9], in assay [10] and in [11] was “binds” throughout.

B6: ARR4 (type-A ARR) (other, Arabidopsis, UniProt O82798 1-259, looked up)
chain: MARDGGVSCLRRSEMMSVGGIGGIESAPLDLDEVHVLAVDDSLVDRIVIERLLRITSCKVTAVDSGWRALEFLGLDNEKASAEFDRLKVDLIITDYCMPGMTGYELLKKIKESSNFREVPVVIMSSENVLTRIDRCLEEGAQDFLLKPVKLADVKRLRSHLTKDVKLSNGNKRKLPEDSSSVNSSLPPPSPPLTISPESSPPLTVSTESSDSSPPLSPVEIFSTSPLSSPIDDEDDDVLTSSSEESPIRRQKMRSPGLD
notes: Prey in yeast two-hybrid
For the molecule B6, the binding result in assay [3], in assay [4], in [5] and in [6] was “no binding” in each case.
